In this test the target is CD44v6 on antigen-positive FaDu cells (human head and neck cancer cell line) (human) (UniProt P16070). The test is described as follows: flow cytometry (FACS) on FaDu cells, FITC-labeled anti-human IgG detection, on ice.

B1: BIWA 4 (antibody, human IgG1, kappa, V domains shown)
VH: EVQLVESGGGLVKPGGSLRLSCAASGFTFSSYDMSWVRQAPGKGLEWVSTISSGGSYTYYLDSIKGRFTISRDNAKNSLYLQMNSLRAEDTAVYYCARQGLDYWGRGTLVTVSS
VL: EIVLTQSPATLSLSPGERATLSCSASSSINYIYWYQQKPGQAPRLLIYLTSNLASGVPARFSGSGSGTDFTLTISSLEPEDFAVYYCLQWSSNPLTFGGGTKVEIKR
A word on the Kd: it is the concentration at which binding is half-saturated. B1 displayed a Kd of 1 nM.

Values taken from patent US20030103985A1.
